Assay results taken from publication PMC5646240, “Norovirus Escape from Broadly Neutralizing Antibodies Is Limited to Allostery-Like Mechanisms” (mSphere, 2017).

B1: monoclonal antibody 2D3.7 (IgA) (antibody, V domains shown)
VH: VQLQESGPGLVAPSQSLSITCTVSGFSLTSYGVHWIRQPSGKGLEWLGVIWPGGSTNYNSALMSRLSISKDNSQSQVVLKMNSLQTDDSAMYYCARGRVAAWFAYWGQGTLVTVSA
VL: DIVMTQSQKFMSTSVGDRVSVTCTASQNVGTSVAWYLQRPGQSPEALIYSASYRNSGVPDRFTGSGSGTDFTLTISNVQSEDLADYFCQQYNNYPFTFGSGTKLEIK
notes: VH before the CDR3 loop; heavy chain CDR3 loop as printed; nearly identical to the light chain variable domain of PDB 2AEQ; IgA; also called MAb 2D3; IgA MAb 2D3
B2: murine norovirus MNV1.CW3 (GV/MNV1/2002/USA) virions, capsid protein (natural protein)
chain: MRMSDGAAPKANGSEASGQDLVPAAVEQAVPIQPVAGAALAAPAAGQINQIDPWIFQNFVQCPLGEFSISPRNTPGEILFDLALGPGLNPYLAHLSAMYTGWVGNMEVQLVLAGNAFTAGKVVVALVPPYFPKGSLTTAQITCFPHVMCDVRTLEPIQLPLLDVRRVLWHATQDQEESMRLVCMLYTPLRTNSPGDESFVVSGRLLSKPAADFNFVYLTPPIERTIYRMVDLPVIQPRLCTHARWPAPVYGLLVDPSLPSNPQWQNGRVHVDGTLLGTTPISGSWVSCFAAEAAYKFQSGTGEVATFTLIEQDGSAYVPGDRAAPLGYPDFSGQLEIEVQTETTKTGDKLKVTTFEMILGPTTNADQAPYQGRVFASVTAAASLDLVDGRVRAVPRSIYGFQDTIPEYNDGLLVPLAPPIGPFLPGEVLLRFRTYMRQIDTADAAAEAIDCALPQEFVSWFASNAFTVQSEALLLRYRNTLTGQLLFECKLYNEGYIALSYSGSGPLTFPTDGIFEVVSWVPRLYQLASVGSLATGRMLKQ
notes: capsid protein (VP1) of murine norovirus 1, strain MNV1.CW3, in whole infectious virions; S domain and P domain; Whole virions with a T=3 capsid; the antigen of the antibodies is the capsid protein; The UniProt entry recalled is of MNV1, not checked for the CW3 clone; also called MVV1; source: RAW 264.7 cells, infected; concentrated virus stock (ELISA); purified virions (ultracentrifugation, …)

Columns and labels:
[1] = molecular target: murine norovirus S99 (Berlin/06/06/DE) virions, capsid protein (murine norovirus (strain S99))
[2] = molecular target: murine norovirus WU11 (GV/WU11/2005/USA) virions, capsid protein (Murine norovirus GV/WU11/2005/USA, UniProt A7YJZ2, strain); assay: cell-based or functional assay
[3] = molecular target: murine norovirus WU20 (GV/WU20/2005/USA) virions, capsid protein (Murine norovirus GV/WU20/2005/USA, UniProt A7YJZ8, strain); assay: cell-based or functional assay
[4] = molecular target: murine norovirus MNV3 virions, capsid protein (Murine norovirus, strain MNV3, UniProt Q38JA1, strain); assay: cell-based or functional assay
[5] = molecular target: murine norovirus MNV4 virions, capsid protein (Murine norovirus, strain MNV4, UniProt Q38J98, strain); assay: cell-based or functional assay
[6] = molecular target: murine norovirus MNV1.CW3 (GV/MNV1/2002/USA) virions, capsid protein (murine norovirus (MNV1.CW3), UniProt Q80J94); assay: cell-based or functional assay
[7] = molecular target: murine norovirus CR7 (GV/CR7/2005/USA) virions, capsid protein (Murine norovirus GV/CR7/2005/USA, UniProt A7YK34, strain); assay: cell-based or functional assay
[8] = molecular target: murine norovirus CR3 (GV/CR3/2005/USA) virions, capsid protein (Murine norovirus GV/CR3/2005/USA, UniProt A7YK22, strain); assay: cell-based or functional assay
[9] = molecular target: murine norovirus CR6 (GV/CR6/2005/USA) virions, capsid protein (Murine norovirus GV/CR6/2005/USA, UniProt A7YK31, strain); assay: cell-based or functional assay
[10] = molecular target: murine norovirus CR1 (GV/CR1/2005/USA) virions, capsid protein (Murine norovirus GV/CR1/2005/USA, UniProt A7YK19, strain); assay: cell-based or functional assay
[11] = molecular target: T1, human norovirus GII.4 Saga (2006-Saga) virus-like particles (Norovirus Hu/GII-4/Saga1/2006/JP …, UniProt B5BTR4, strain); assay: ELISA; data not shown; HuNoV VLPs (1 µg of each VLP per well in 100 µl PBS, 24 h at 4°C) tested with the MAbs; details: both partners purified
T1 construct: capsid protein of human norovirus GII.4 Saga (2006), as virus-like particles; also called 2006-Saga [GII.4]; source: provided by Grant Hansman (University of Heidelberg); expressed and purified as previously described (62)

[12] = molecular target: T2, human norovirus genogroup I Norwalk virus (NV) virus-like particles (Human norovirus GI, strain of AY502016 …, UniProt Q6EAV2); assay: as above; details: both partners purified
T2 construct: capsid protein of human norovirus genogroup I strain Norwalk virus, as virus-like particles; also called Norwalk virus VLP; source: provided by Grant Hansman (University of Heidelberg); expressed and purified as previously described (62)

[13] = molecular target: T3, human norovirus GII.4 Sydney (2012-Sydney) virus-like particles (Human norovirus GII.4 …, UniProt K4LM89, strain); assay: as above; details: both partners purified
T3 construct: capsid protein of human norovirus GII.4 Sydney (2012), as virus-like particles; also called 2012-Sydney [GII.4]; source: provided by Grant Hansman (University of Heidelberg); expressed and purified as previously described (62)

[14] = molecular target: T4, human norovirus GII.10 Vietnam026 virus-like particles (Human norovirus GII.10 Vietnam026, UniProt Q5F4T5, strain); assay: as above; details: both partners purified
T4 construct: capsid protein of human norovirus GII.10 Vietnam026, as virus-like particles; also called Vietnam026 [GII.10]; source: provided by Grant Hansman (University of Heidelberg); expressed and purified as previously described (62)

[15] = molecular target: T5, human norovirus GII.12 Hiro virus-like particles (Human norovirus GII.12 Hiro, UniProt Q54AD6, strain); assay: as above; details: both partners purified
T5 construct: capsid protein of human norovirus GII.12 Hiro, as virus-like particles; also called Hiro [GII.12]; source: provided by Grant Hansman (University of Heidelberg); expressed and purified as previously described (62)

[16] = molecular target: the molecule itself; assay: cryo-EM structure; 2D3 Fab added to purified infectious MNV1 virions; image reconstruction at 8.7 Å (FSC 0.143) / 9.9 Å (FSC 0.5), fitted with atomic models of the P domain dimer and a modelled Fab

Binder | plaque neutralization assay: 5 × 10^4 PFU with 0 to 1,000 ng MAb, 30 min at 37°C; virus titer relative to no antibody [1] [log] | plaque neutralization assay: 5 × 10^4 PFU with 0 to 1,000 ng MAb, 30 min at 37°C; virus titer relative to no antibody [2] [log] | plaque neutralization assay: 5 × 10^4 PFU with 0 to 1,000 ng MAb, 30 min at 37°C; virus titer relative to no antibody [3] [log] | plaque neutralization assay: 5 × 10^4 PFU with 0 to 1,000 ng MAb, 30 min at 37°C; virus titer relative to no antibody [4] [log] | plaque neutralization assay: 5 × 10^4 PFU with 0 to 1,000 ng MAb, 30 min at 37°C; virus titer relative to no antibody [5] [log] | plaque neutralization assay: 5 × 10^4 PFU with 0 to 1,000 ng MAb, 30 min at 37°C; virus titer relative to no antibody [6] [log] | plaque neutralization assay: 5 × 10^4 PFU with 0 to 1,000 ng MAb, 30 min at 37°C; virus titer relative to no antibody [7] [log] | plaque neutralization assay: 5 × 10^4 PFU with 0 to 1,000 ng MAb, 30 min at 37°C; virus titer relative to no antibody [8] [log] | plaque neutralization assay: 5 × 10^4 PFU with 0 to 1,000 ng MAb, 30 min at 37°C; virus titer relative to no antibody [9] [log] | plaque neutralization assay: 5 × 10^4 PFU with 0 to 1,000 ng MAb, 30 min at 37°C; virus titer relative to no antibody [10] [log] | binding result [11] | binding result [12] | binding result [13] | binding result [14] | binding result [15] | binding result [16]
B1 | > 1 | ≥ 1 | ≥ 1 | ≥ 1 | ≥ 1 | ≥ 1 | ≥ 1 | ≥ 1 | ≥ 1 | ≥ 1 | no binding | no binding | no binding | no binding | no binding | –
B2 | – | – | – | – | – | – | – | – | – | – | – | – | – | – | – | binds
